Columns and labels:
c-Abl (mouse) = assay: phosphorylation enrichment, bacterial display (enrichment ratio); higher = better substrate or ligand; peptides without Tyr show the background
FGFR1 = FGFR1 (UniProt P11362); assay: as above
Fes = Fes (UniProt P07332); assay: as above
EPHB2 = EPHB2 (UniProt P29323); assay: as above
EPHB1 = EPHB1 (UniProt P54762); assay: as above
Jak2 = Jak2 (UniProt O60674); assay: as above
MERTK = MERTK (UniProt Q12866); assay: as above
Fer (mouse) = assay: as above
c-Src = assay: as above
Hck = Hck (UniProt P08631); assay: as above
Chain of Hck (P08631 whole entry, looked up): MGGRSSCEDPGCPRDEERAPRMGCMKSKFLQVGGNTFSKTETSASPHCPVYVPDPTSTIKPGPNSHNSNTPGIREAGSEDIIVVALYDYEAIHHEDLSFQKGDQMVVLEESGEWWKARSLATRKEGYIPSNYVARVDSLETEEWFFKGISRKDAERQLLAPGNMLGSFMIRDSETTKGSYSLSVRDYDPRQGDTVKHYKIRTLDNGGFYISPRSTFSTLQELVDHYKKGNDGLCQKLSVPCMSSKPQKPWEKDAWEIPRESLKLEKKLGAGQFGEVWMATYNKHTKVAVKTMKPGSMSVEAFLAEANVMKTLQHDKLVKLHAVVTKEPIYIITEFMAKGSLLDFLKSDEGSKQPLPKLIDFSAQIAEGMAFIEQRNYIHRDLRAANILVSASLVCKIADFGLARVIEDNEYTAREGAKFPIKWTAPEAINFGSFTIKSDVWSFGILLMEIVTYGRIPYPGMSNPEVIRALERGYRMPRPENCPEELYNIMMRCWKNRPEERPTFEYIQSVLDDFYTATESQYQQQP

AncSZ = assay: as above
Fyn = Fyn (UniProt P06241); assay: as above
FGFR3 = FGFR3 (UniProt P22607); assay: as above
Chain of FGFR3 (P22607 whole entry, looked up): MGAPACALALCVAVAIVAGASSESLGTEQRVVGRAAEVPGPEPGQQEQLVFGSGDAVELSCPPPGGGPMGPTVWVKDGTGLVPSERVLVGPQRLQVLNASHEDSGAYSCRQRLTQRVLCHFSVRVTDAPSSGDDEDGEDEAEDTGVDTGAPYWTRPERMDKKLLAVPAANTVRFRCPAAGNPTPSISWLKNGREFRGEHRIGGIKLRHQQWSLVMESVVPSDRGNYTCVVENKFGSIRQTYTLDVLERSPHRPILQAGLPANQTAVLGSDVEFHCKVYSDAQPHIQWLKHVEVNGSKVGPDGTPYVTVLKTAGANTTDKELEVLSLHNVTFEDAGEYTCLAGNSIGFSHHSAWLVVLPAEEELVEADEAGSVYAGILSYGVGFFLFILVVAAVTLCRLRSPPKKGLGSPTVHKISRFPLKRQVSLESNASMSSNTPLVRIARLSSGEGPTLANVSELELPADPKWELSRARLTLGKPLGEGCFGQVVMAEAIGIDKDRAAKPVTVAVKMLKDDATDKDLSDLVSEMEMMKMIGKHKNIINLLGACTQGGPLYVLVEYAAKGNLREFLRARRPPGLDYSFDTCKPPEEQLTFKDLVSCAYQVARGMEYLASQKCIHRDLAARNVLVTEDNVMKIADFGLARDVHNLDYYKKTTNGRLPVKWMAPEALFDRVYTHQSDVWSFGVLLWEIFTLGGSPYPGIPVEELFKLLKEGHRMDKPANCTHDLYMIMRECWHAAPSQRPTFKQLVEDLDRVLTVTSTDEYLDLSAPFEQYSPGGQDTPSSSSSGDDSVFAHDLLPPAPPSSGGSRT

c-Src SH2 = assay: SH2 binding enrichment of the phosphorylated peptide, bacterial display (enrichment ratio); higher = better substrate or ligand; peptides without Tyr show the background
SHP2-C SH2 = assay: as above
Grb2 SH2 = Grb2 SH2 (UniProt P62993); assay: as above
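Wherever SH2 binding enrichment of the phosphorylated peptide, bacterial display is given: peptide library displayed on the E. coli surface as eCPX fusions, selected cells deep-sequenced, score is each peptide's frequency after selection divided by its frequency in the input.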
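Wherever phosphorylation enrichment, bacterial display is given: 11-residue human phosphosite peptides and single-mutation variants displayed on the E. coli surface, counted by deep sequencing, each peptide's frequency after selection divided by its frequency in the unselected input library; frequency after pTyr selection over input frequency; kinase dosed for 20-30% of maximal phosphorylation in three min.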

Chain of MERTK (Q12866 whole entry, looked up): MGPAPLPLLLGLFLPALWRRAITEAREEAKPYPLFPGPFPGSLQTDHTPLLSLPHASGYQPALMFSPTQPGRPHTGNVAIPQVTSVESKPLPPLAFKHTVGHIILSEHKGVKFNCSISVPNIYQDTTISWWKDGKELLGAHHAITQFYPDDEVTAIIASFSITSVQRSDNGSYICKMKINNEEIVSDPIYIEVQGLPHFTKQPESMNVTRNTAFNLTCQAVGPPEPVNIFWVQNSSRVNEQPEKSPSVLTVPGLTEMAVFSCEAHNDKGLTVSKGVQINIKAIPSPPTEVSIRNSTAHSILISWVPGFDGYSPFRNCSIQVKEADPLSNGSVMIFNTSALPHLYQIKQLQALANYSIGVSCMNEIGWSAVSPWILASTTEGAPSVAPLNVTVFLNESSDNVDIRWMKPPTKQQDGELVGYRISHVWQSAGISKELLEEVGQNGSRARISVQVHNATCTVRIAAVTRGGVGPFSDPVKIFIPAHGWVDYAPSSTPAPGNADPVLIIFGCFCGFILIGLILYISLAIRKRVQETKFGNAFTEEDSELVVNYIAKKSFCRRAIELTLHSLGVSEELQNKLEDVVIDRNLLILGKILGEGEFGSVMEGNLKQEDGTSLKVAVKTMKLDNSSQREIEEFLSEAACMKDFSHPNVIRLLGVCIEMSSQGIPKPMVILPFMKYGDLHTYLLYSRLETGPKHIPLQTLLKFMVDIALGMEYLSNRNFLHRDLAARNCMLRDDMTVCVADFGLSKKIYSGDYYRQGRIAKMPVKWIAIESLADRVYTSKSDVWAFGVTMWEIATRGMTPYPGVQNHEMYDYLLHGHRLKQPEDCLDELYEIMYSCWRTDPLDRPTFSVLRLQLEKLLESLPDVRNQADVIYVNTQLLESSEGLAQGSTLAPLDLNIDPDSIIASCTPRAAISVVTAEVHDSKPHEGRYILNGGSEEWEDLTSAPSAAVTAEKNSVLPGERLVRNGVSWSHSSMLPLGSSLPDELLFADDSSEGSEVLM
Chain of EPHB1 (P54762 whole entry, looked up): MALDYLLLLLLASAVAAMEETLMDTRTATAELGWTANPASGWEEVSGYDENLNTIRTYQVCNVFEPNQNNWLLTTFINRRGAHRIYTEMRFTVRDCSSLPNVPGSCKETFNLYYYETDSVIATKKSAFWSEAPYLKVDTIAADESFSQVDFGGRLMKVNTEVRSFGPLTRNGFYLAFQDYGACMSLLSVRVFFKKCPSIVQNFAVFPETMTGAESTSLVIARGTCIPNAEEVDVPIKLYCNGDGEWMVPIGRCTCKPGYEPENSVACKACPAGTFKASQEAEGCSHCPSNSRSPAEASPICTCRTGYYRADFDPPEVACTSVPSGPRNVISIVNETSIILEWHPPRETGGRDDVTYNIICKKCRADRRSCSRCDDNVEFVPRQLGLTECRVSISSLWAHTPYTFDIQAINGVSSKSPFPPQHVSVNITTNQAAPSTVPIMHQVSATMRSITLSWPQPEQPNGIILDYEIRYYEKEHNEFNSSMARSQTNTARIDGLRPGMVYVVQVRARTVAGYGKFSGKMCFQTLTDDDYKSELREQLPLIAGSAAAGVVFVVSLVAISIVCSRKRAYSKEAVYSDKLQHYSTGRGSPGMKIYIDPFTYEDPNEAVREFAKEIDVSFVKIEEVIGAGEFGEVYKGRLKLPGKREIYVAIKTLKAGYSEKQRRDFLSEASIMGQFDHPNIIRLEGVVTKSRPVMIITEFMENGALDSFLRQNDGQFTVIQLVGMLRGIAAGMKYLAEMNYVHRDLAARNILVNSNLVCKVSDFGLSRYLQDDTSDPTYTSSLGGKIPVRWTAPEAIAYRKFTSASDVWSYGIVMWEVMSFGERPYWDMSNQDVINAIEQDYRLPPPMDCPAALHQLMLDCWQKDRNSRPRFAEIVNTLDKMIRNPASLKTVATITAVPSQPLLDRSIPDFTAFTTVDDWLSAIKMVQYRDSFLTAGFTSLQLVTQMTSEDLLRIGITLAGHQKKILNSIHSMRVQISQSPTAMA
Chain of Fes (P07332 whole entry, looked up): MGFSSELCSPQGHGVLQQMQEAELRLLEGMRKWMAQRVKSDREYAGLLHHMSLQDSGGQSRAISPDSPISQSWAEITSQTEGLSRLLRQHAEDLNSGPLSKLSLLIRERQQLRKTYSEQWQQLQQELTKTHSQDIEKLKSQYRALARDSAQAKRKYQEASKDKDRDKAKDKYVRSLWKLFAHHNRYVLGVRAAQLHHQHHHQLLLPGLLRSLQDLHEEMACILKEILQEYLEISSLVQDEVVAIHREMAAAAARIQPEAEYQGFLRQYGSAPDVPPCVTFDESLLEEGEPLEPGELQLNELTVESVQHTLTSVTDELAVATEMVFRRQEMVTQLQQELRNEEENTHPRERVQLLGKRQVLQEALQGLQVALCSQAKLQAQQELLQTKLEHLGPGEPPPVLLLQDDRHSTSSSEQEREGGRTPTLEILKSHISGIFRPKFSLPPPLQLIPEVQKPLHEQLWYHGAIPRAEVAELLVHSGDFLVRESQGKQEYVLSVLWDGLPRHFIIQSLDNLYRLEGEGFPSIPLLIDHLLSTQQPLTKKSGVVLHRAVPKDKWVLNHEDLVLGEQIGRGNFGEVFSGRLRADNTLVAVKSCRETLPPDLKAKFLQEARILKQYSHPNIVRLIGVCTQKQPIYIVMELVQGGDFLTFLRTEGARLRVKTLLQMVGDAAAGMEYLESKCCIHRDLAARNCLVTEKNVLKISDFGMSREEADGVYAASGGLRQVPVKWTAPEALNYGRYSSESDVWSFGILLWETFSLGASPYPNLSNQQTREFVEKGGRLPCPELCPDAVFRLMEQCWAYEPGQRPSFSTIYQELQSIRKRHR
Chain of FGFR1 (P11362 whole entry, looked up): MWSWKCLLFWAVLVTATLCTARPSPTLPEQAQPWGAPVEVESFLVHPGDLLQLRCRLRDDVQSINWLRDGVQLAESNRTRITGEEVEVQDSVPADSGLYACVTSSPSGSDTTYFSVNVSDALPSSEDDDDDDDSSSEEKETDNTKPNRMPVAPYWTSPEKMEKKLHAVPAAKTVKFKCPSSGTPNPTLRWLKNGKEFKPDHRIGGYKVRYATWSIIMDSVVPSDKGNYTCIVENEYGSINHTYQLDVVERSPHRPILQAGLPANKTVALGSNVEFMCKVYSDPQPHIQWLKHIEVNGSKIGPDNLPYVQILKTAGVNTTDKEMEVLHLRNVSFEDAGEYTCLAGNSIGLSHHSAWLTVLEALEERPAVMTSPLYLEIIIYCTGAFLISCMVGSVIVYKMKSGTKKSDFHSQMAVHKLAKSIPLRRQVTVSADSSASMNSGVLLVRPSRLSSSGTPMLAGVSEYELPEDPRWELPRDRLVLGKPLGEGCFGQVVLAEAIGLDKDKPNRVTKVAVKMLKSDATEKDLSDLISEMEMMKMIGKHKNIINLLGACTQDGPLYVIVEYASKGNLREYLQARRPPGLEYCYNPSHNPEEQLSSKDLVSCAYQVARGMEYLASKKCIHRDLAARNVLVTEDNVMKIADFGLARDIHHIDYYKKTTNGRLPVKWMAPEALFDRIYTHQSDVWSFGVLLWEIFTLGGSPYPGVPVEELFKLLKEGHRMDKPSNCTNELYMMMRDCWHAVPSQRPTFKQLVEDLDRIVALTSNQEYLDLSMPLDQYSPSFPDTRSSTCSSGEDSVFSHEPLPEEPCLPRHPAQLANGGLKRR

Sequence | SH2 binding enrichment (c-Src SH2) | SH2 binding enrichment (SHP2-C SH2) | SH2 binding enrichment (Grb2 SH2) | phosphorylation enrichment (c-Abl (mouse)) | phosphorylation enrichment (FGFR1) | phosphorylation enrichment (Fes) | phosphorylation enrichment (EPHB2) | phosphorylation enrichment (EPHB1) | phosphorylation enrichment (Jak2) | phosphorylation enrichment (MERTK) | phosphorylation enrichment (Fer (mouse)) | phosphorylation enrichment (c-Src) | phosphorylation enrichment (Hck) | phosphorylation enrichment (AncSZ) | phosphorylation enrichment (Fyn) | phosphorylation enrichment (FGFR3)
SNMPTYSGHFS [GRIN2A_Y1224_T1229S] | 0.491 | 0.643 | 0.898 | 0.684 | 0.433 | 0.581 | 0.784 | 0.585 | 0.662 | 1.15 | 1.04 | 2.61 | 1.48 | 0.594 | 1.7 | 0.45
SQETYYRVSNM [ABCD1_Y181_Q178E] | 0.473 | 0.79 | 0.657 | 1.33 | 6.81 | 0.805 | 2.95 | 4.42 | 3.85 | 3.7 | 0.549 | 2.96 | 3.97 | 1.37 | 2 | 4.94
SQKRKYIEIDS [SDAD1_Y580] | 2.09 | 1.04 | 0.856 | 0.613 | 0.463 | 0.614 | 0.414 | 0.463 | 0.701 | 0.571 | 0.394 | 0.507 | 0.475 | 0.818 | 0.451 | 0.376
SQQTYYRVSNM [ABCD1_Y181] | 0.636 | 0.789 | 0.853 | 0.795 | 7.77 | 0.678 | 1.12 | 1.93 | 6.19 | 3.23 | 0.401 | 3 | 3.23 | 0.703 | 1.47 | 5.82
SRGSSYSSIPK [FLNC_Y2625] | 1.02 | 0.563 | 0.769 | 0.428 | 0.479 | 0.518 | 0.322 | 0.304 | 0.498 | 0.489 | 0.37 | 0.444 | 0.381 | 0.474 | 0.358 | 0.362
SSFDIYHLSRE [KIR3DL2_Y253_YF] | 0.608 | 0.694 | 0.776 | 0.807 | 1.44 | 1.02 | 0.762 | 0.975 | 0.817 | 2.6 | 0.788 | 7.22 | 9.84 | 1.12 | 12.1 | 1.29
SSKILYHIIKG [CDH17_Y489] | 6.59 | 3.78 | 0.958 | 0.438 | 1.22 | 0.798 | 0.529 | 0.395 | 0.63 | 1.12 | 0.383 | 0.453 | 0.655 | 0.565 | 0.45 | 0.923
SSPVPYLSPET [TJP1_Y931] | 0.507 | 0.66 | 0.851 | 0.646 | 0.482 | 0.835 | 0.502 | 0.442 | 0.719 | 0.409 | 0.453 | 0.422 | 0.445 | 0.789 | 0.541 | 0.627
SSREEYFIGGG [GYPC_Y126_K124E] | 0.486 | 0.895 | 0.836 | 0.71 | 0.562 | 0.909 | 0.44 | 0.457 | 0.894 | 0.471 | 0.486 | 0.655 | 0.474 | 1.05 | 0.574 | 1.94
SSYDTYHLSRE [KIR3DL2_Y253_I252T] | 0.632 | 0.529 | 0.685 | 0.657 | 0.6 | 0.713 | 0.841 | 0.451 | 0.527 | 0.583 | 0.457 | 3.69 | 4.59 | 0.709 | 6.54 | 0.569
SSYSRYIMMPN [LEF1_Y114_G113R] | 1.32 | 1.56 | 0.665 | 0.405 | 1.79 | 0.637 | 1.84 | 1.9 | 2.35 | 3.9 | 0.552 | 0.518 | 0.488 | 0.654 | 0.542 | 1.3
STASGYSDVTD [DTX2_Y425] | 3.68 | 1.11 | 0.851 | 0.61 | 0.497 | 0.84 | 0.464 | 0.448 | 0.661 | 0.355 | 0.398 | 0.358 | 0.449 | 0.721 | 0.447 | 0.487
STEAIYWRFSK [SH3PXD2B_Y42_R43W_YF] | 0.434 | 0.495 | 0.606 | 7.78 | 0.913 | 1.51 | 0.74 | 1.05 | 1.29 | 1.32 | 0.564 | 2.98 | 2.51 | 1.2 | 3.69 | 1.13
STEVIYQPRRK [STK11_Y36] | 0.376 | 0.467 | 0.585 | 1 | 0.424 | 0.523 | 0.527 | 0.437 | 0.612 | 0.643 | 0.473 | 0.704 | 0.683 | 0.603 | 0.52 | 0.539
STLEVYRCHPP [IL21R_Y317_S318R] | 0.42 | 0.455 | 0.715 | 0.78 | 0.55 | 1.25 | 0.675 | 0.758 | 1.03 | 0.364 | 0.49 | 0.497 | 0.552 | 1.11 | 0.542 | 0.901
STTIHYNYMCN [TP53_Y234_C229S] | 1.88 | 0.845 | 0.812 | 0.71 | 0.629 | 1.14 | 0.677 | 0.603 | 0.792 | 0.53 | 0.592 | 0.458 | 0.543 | 1 | 0.517 | 0.809
SVTCTHSPALN [TP53_Y126_Y126H] | 0.444 | 0.389 | 0.742 | 0.818 | 0.404 | 1.01 | 0.548 | 0.498 | 0.759 | 0.4 | 0.542 | 0.459 | 0.529 | 0.862 | 0.52 | 0.612
SVTCTYSPDLN [TP53_Y126_A129D] | 0.471 | 0.856 | 0.89 | 0.915 | 0.533 | 1.71 | 0.71 | 0.757 | 1.31 | 0.437 | 0.629 | 0.563 | 0.583 | 1.5 | 0.502 | 0.985
SVVVPHEPPEV [TP53_Y220_Y220H] | 0.581 | 0.902 | 0.956 | 0.703 | 0.53 | 0.949 | 0.46 | 0.51 | 0.755 | 0.41 | 0.538 | 0.396 | 0.46 | 0.763 | 0.466 | 0.696
SWVVPYEPPEV [TP53_Y220_V216W] | 1.33 | 0.639 | 1.05 | 0.851 | 0.599 | 1.23 | 0.631 | 0.553 | 0.957 | 0.39 | 0.577 | 0.411 | 0.542 | 1.44 | 0.463 | 0.861

The next lines start with results.

SH2 binding enrichment (c-Src SH2) | SH2 binding enrichment (SHP2-C SH2) | SH2 binding enrichment (Grb2 SH2) | Sequence | phosphorylation enrichment (c-Abl (mouse)) | phosphorylation enrichment (FGFR1) | phosphorylation enrichment (Fes) | phosphorylation enrichment (EPHB2) | phosphorylation enrichment (EPHB1) | phosphorylation enrichment (Jak2) | phosphorylation enrichment (MERTK) | phosphorylation enrichment (Fer (mouse)) | phosphorylation enrichment (c-Src) | phosphorylation enrichment (Hck) | phosphorylation enrichment (AncSZ) | phosphorylation enrichment (Fyn) | phosphorylation enrichment (FGFR3)
0.394 | 0.411 | 0.731 | SQSPHYFRSGR [GPATCH8_Y1038] | 0.544 | 0.383 | 0.819 | 0.394 | 0.56 | 0.687 | 0.502 | 0.427 | 0.538 | 0.389 | 0.719 | 0.476 | 0.425
0.764 | 0.641 | 0.89 | SREALYNETDP [CACNA1A_Y794_M797T] | 0.996 | 0.559 | 1.37 | 0.642 | 0.67 | 1.14 | 0.625 | 0.663 | 0.722 | 0.739 | 1.16 | 0.624 | 0.815
0.398 | 0.723 | 0.783 | SSLMKYQQNVS [EGFEM1P_Y160_P157L] | 0.374 | 0.321 | 0.571 | 0.46 | 0.416 | 0.422 | 0.343 | 0.324 | 0.363 | 0.426 | 0.491 | 0.386 | 0.536
0.498 | 0.473 | 0.815 | SSYPDYLAAVD [GLB1_Y154_D151Y] | 0.653 | 0.647 | 1.05 | 0.554 | 0.518 | 0.994 | 0.415 | 0.495 | 0.451 | 0.515 | 1.36 | 0.495 | 0.746
0.557 | 0.664 | 0.836 | STEAIYRRYSK [SH3PXD2B_Y42] | 0.709 | 0.41 | 0.418 | 0.441 | 0.302 | 0.534 | 0.466 | 0.341 | 0.52 | 0.425 | 0.511 | 0.456 | 0.425
1.13 | 1.07 | 1.29 | SVCPDYDLCSV [SQSTM1_Y148] | 0.98 | 0.661 | 1.3 | 0.959 | 0.788 | 1.3 | 0.524 | 1.89 | 0.87 | 0.678 | 1.65 | 0.689 | 0.901
0.72 | 0.777 | 0.712 | SVQVEYMKTIL [GLYATL2_Y127_D126E] | 0.484 | 0.437 | 0.893 | 0.476 | 0.41 | 0.612 | 0.429 | 0.425 | 0.376 | 0.469 | 0.643 | 0.413 | 0.578
0.468 | 0.44 | 0.844 | SVTCTYSPALS [TP53_Y126_N131S] | 1.42 | 0.396 | 1.63 | 0.645 | 0.673 | 1.42 | 0.42 | 0.508 | 0.719 | 0.553 | 2.15 | 0.424 | 0.697
0.537 | 0.732 | 0.78 | SVTCTYSSALN [TP53_Y126_P128S] | 0.728 | 0.483 | 1 | 0.576 | 0.601 | 0.909 | 0.458 | 0.534 | 0.64 | 0.689 | 1 | 0.6 | 0.726

Source: the supplement of paper PMC10065799, “High-throughput profiling of sequence recognition by tyrosine kinases and SH2 domains using bacterial peptide display” (eLife, 2023)
